From US20260209346A1 (LTZ THERAPEUTICS, published 2026)

T1: human CD79b recombinant protein (human, UniProt P40259 29-159)
T1 construct: also called human CD79b ECD antigen; recombinant human CD79b ECD
T1 sequence: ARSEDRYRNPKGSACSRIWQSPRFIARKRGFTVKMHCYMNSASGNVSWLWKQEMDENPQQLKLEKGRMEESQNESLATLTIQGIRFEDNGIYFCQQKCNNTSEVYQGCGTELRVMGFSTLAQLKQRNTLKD

T2: CD79b endogenously expressed on the cell surface (malignant B cell lines, normal B cells in PBMC, CLL … (human, UniProt P40259 29-229))
T2 construct: whole, on cells; On cells CD79b stands in the B-cell receptor complex with CD79a and surface Ig; also called cell surface CD79b; endogenous CD79b
T2 sequence (looked up): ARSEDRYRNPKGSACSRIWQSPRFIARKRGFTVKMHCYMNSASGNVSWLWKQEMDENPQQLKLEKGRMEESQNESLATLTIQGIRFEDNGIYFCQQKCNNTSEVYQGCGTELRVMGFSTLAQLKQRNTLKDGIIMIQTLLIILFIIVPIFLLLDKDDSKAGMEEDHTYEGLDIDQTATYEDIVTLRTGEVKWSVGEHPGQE

T3: cynomolgus CD79b recombinant protein (cynomolgus)
T3 chain: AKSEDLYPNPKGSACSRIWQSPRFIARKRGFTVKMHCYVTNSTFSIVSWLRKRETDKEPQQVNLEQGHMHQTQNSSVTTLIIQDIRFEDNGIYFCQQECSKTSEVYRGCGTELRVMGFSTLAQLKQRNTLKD


What was measured:
[1] = biological target: T1, human CD79b recombinant protein; assay: ELISA on recombinant human CD79b ECD; A 450nm
[2] = biological target: T2, CD79b endogenously expressed on the …; assay: flow cytometry on a cell line expressing endogenous CD79b (not named on the sheet or in the text); MFI (PE)
[3] = biological target: T1, human CD79b recombinant protein; assay: ELISA, coated human CD79b recombinant protein
Protocol: (§1) Binding affinities of anti-CD79b antibodies to human and cynomolgus CD79b recombinant proteins were tested by ELISA. 1 ug/ml (in PBS buffer) of human or cynomolgus CD79b recombinant proteins were coated on an ELISA plate overnight. ELISA plates were washed and blocked with blocking buffer (PBS+1% BSA) followed by incubation with serially diluted anti-CD79b primary antibodies. Anti-CD79b antibody binding was quantified using an anti-human IgG HRP secondary antibody (Biolegend Catalog #410902) and HRP substrate.

[4] = biological target: T3, cynomolgus CD79b recombinant protein; assay: ELISA, coated cynomolgus CD79b recombinant protein
Protocol: as §1

[5] = biological target: T1, human CD79b recombinant protein; assay: BLI, antibody captured on anti-human IgG Fc probes, human CD79b in solution, 1:1 model
Protocol: (§2) Binding affinities of anti-CD79b antibodies to human CD79b recombinant proteins were tested by BLI. 10 ug/ml of anti-CD79b antibodies were captured by anti-human IgG Fc probes (Gator Bio Catalog #160024). […] Absolute kD was determined by applying a 1:1 binding model (Global Rmax unlinked).

[6] = biological target: T2, CD79b endogenously expressed on the …; assay: flow cytometry on BJAB cells; anti-human IgG1-PE; MFI (PE); table under the graph
Protocol: (§3) The binding affinities of anti-CD79b antibodies to malignant B cell lines were tested. […] The cells were then incubated with 100 μl anti-human IgG1-PE (Invitrogen, cat: 12-4998-82), 1:1000 dilution, for 30 min on ice, washed with 200 ul PBS for three times before flow cytometry analysis.

[7] = biological target: T2, CD79b endogenously expressed on the …; assay: flow cytometry on Ramos cells; anti-human IgG1-PE; MFI (PE); table under the graph
Protocol: as §3

[8] = biological target: T2, CD79b endogenously expressed on the …; assay: flow cytometry on Daudi cells; anti-human IgG1-PE; MFI (PE); table under the graph
Protocol: as §3

[9] = biological target: T2, CD79b endogenously expressed on the …; assay: flow cytometry on Nalm-6 cells; anti-human IgG1-PE; MFI (PE); table under the graph
Protocol: as §3

[10] = biological target: T2, CD79b endogenously expressed on the …; assay: flow cytometry on SU-DHL-4 cells; anti-human IgG1-PE; MFI (PE); table under the graph
Protocol: as §3

[11] = biological target: T2, CD79b endogenously expressed on the …; assay: flow cytometry on PBMC of CLL Donor 0255 (B lymphocytes); PE goat anti-human IgG Fc; MFI PE
Protocol: To determine the binding affinities of the anti-CD79b antibodies to cell surface CD79b on Chronic Lymphocytic Leukemia (CLL) patient's B lymphocytes, a cell-based binding assay was conducted. […] CLL patient PBMCs were purchased from the company Bioscience. […] Specifically, 2.5×10⁴ PBMC cells in 50 μl FACS buffer (1×PBS+2% BSA+2 mM EDTA) were seeded in each well of a V bottom 96-well plate. […] The mixture was incubated on ice for 30 minutes, and then washed twice with FACS buffer. The cells were re-suspended in 100 μl FACS buffer containing PE conjugated goat anti-human IgG Fc (1:1000) and anti-human CD19 (BV421), and incubated for 30 minutes on ice in darkness. After washing twice with FACS buffer, the cells were re-suspended in 100 μl of FACS buffer and analyzed with a Cytek cytometer.

[12] = biological target: T1, human CD79b recombinant protein; assay: BLI; antibody at 10 ug/ml captured on anti-human IgG Fc probes, hCD79b in solution; same value printed in the rows for 18.3 and 9.14 nM hCD79b
Protocol: as §2

[13] = biological target: T2, CD79b endogenously expressed on the …; assay: flow cytometry on PBMC of Donor 889, B cells marked with CD19-BV421; anti-human IgG1-PE; MFI (PE); table under the graph
Protocol: (§4) The binding affinities of anti-CD79b antibodies to endogenous B cells were tested. […] The cells were then incubated with […] mixture of anti-human IgG1-PE (Invitrogen, Cat #: 12-4998-82), 1:1000 dilution; CD19-BV421 (Biolegend, Cat #:302230, 1:400 dilution) for 30 min on ice, and washed with 200 ul PBS for three times before flow cytometry analysis.

[14] = biological target: T2, CD79b endogenously expressed on the …; assay: flow cytometry on PBMC of Donor 356, B cells marked with CD19-BV421; anti-human IgG1-PE; MFI (PE); table under the graph
Protocol: as §4

[15] = biological target: T2, CD79b endogenously expressed on the …; assay: flow cytometry on PBMC of Donor 2890, B cells marked with CD19-BV421; anti-human IgG1-PE; MFI (PE); table under the graph
Protocol: as §4

[16] = biological target: T2, CD79b endogenously expressed on the …; assay: flow cytometry on PBMC of Donor 2235, B cells marked with CD19-BV421; anti-human IgG1-PE; MFI (PE); table under the graph
Protocol: as §4

Binder | EC50 (read off the curve) [1] [pM] | EC50 (read off the curve) [2] [pM] | IC50 [3] [pM] | IC50 [4] [pM] | Kd [5] [pM] | EC50 [6] [pM] | EC50 [7] [pM] | EC50 [8] [pM] | EC50 [9] [pM] | EC50 [10] [pM] | EC50 (read off the curve) [11] [pM] | koff [12] [s⁻¹] | kon [12] [M⁻¹ s⁻¹] | EC50 [13] [pM] | EC50 [14] [pM] | EC50 [15] [pM] | EC50 [16] [pM]
hu44G2 (antibody, V domains shown, Humanized antibody; also called humanized 44G2) VH: EQQLVETGGGLIQPGGSLRLSCAASGFTINIDYWISWVRQAPGKGLEWIGIIDPGDGTTYFAIWVSGRFTISFDNSKNTVYLQMNSLRAEDTAVYFCVREFSASAYQYDLWGPGTLVTVSS VL: ELVMTQSPATLSVSPGERATLSCRASEDIENYLAWYQQKPGQPPRLLIYRASTLSSGVPARFSGSGSGTEFTLTISSLQSEDFAVYYCQQGYRNSNVDNPFGGGTKVEIK | ~200 | ~200 | – | – | – | – | – | – | – | – | – | – | – | – | – | – | –
hu57B9 (antibody, V domains shown, Humanized antibody; also called humanized 57B9) VH: EQQLVETGGGLIQPGGSLRLSCAASEFTINIDYWISWVRQAPGKGLEWIGIIDPGDGTTYFAIWVSGRFTISRDTSKNTVYLQMNSLRAEDTAVYFCAREVSASAYQYDLWGPGTLVTVSS VL: ELVMTQSPATLSVSPGERATLSCQASEDIESYLAWYQQKPGQPPRLLIYFTSNLASGVPARFSGSGSGTEYTLTISSLQSEDFAVYYCQQGYRNSDVHNPFGGGTKVEIK | ~80 | ~200 | – | – | – | – | – | – | – | – | – | – | – | – | – | – | –
hu48H10 (antibody, V domains shown, Humanized antibody; also called humanized 48H10) VH: EQQLVETGGGLIQPGGSLRLSCAASGFTINIDYWISWVRQAPGKGLEWIGIIDPGDGTTYFAIWVSGRFTISTDNSKNTVYLQMNSLRAEDTAVYFCAREFSASAYQYDLWGPGTLVTVSS VL: ELVMTQSPATLSVSPGERATLSCQASEDIESYLTWYQQKPGQPPRLLMYRASTLSSGVPARFSASGSGTEFTLTISSLQSEDFAVYYCQQGYRNKDVDNPFGGGTKVEIK | ~100 | ~500 | – | – | – | – | – | – | – | – | – | – | – | – | – | – | –
ch57B9 (antibody, human IgG1, kappa, V domains shown, Rabbit/human chimeric IgG1 kappa; also called chimeric 57B9) VH: QSVRETGGGLVQPGGSLTLSCEASEFTINIDYWISWVRQAPGKGLEWIGIIDPGDGTTYFAIWVSGRFTITRNTNLNTVDLKMTSLTEADTATYFCAREVSASAYQYDLWGPGTLVTVSS VL: ALVMTQTPSSVSADVGGTVSINCQASEDIESYLAWYQQKPGQPPKLLIYFTSNLASGVPSRFKGSGSGTEYTLTISGVQPDDAATYYCQQGYRNSDVHNPFGGGTEVVVKR | ~100 | ~300 | 420 | 186000 | 239 | 910 | 1300 | 1220 | 1730 | 890 | ~900 | 8.8e-05 | 368000 | – | – | – | –
ch48H10 (antibody, human IgG1, kappa, V domains shown, Rabbit/human chimeric IgG1 kappa; also called chimeric 48H10) VH: QSVKETGGGLVQPGGSLTLSCKASGFTINIDYWISWVRQAPGKGLEWIGIIDPGDGTTYFAIWVSGRFTISTDNAQNTVDLQMNSLTAADTATYFCAREFSASAYQYDLWGPGTLVTVSS VL: ALVMTQTPSSVSAAVGGTVSINCQASEDIESYLTWYQQKPGQPPKLLMYRASTLSSGVSSRFSASGSGTEFTLTISGVQPDDAATYYCQQGYRNKDVDNPFGGGTEVVVKR | ~300 | ~400 | 600 | 65300 | 31.4 | 980 | 1320 | 1380 | 2690 | 980 | ~900 | 1.09e-05 | 346000 | 154 | 446 | 1170 | 272
ch22D10 (antibody, human IgG1, kappa, V domains shown, Rabbit/human chimeric IgG1 kappa; also called chimeric 22D10) VH: QSVEESGGRLVTPGTPLTLTCTASGFTINDYHMNWVRQAPGKGLEWIGIISSNGDTYYASWAKGRFTISRTSTTVDLKMTSLTTEDTATYFCARDDRDRSYAFDPWGPGTLVTVSS VL: ALVMTQTPSSVSAAVGGTVTINCRASEDIERYLAWYQQKPGQRPKLLIYGASTLASGVPSRFKGSGSGTEYTLTISGVQPDDAATYYCHQGDSSRNVVNVFGGGTEVVVKR | – | – | 220 | – | 313 | 340 | 360 | 240 | 430 | 400 | – | 0.000106 | 338000 | – | – | – | –
hu23D8 (antibody, V domains shown, Humanized antibody; also called humanized 23D8) VH: EQQLLESGGGLVQPGGSLRLSCAVSGLSLSSNAINWVRQAPGKGLEWIGMIYSGGRIEYASWAKGRFTISKDSSKNTVYLQMNSLRAEDTAVYFCAKGMSPSAHSSDIWGPGTLVTVSS VL: EGVMTQSPATLSVSPGERATLSCQASQSISDNLSWYQQKPGQPPRLLIYDASDLASGVPARFSGSGSGTEFTLTISSLQSEDFAVYYCQQDWISSNVDNTFGGGTKVEIK | ~100 | ~500 | – | – | – | – | – | – | – | – | – | – | – | – | – | – | –
